# Measured values: US10500256B2, “Polymers for delivery of therapeutic proteins” (BOARD OF REGENTS, THE UNIVERSITY OF TEXAS SYSTEM, priority 2014, dated 2019)
# Key:
# Caco-2 monolayer [1] = settings: cited from earlier work
# Caco-2 monolayer [2] = experiment: Transport across Caco-2 monolayer (literature data); assay type: in vitro ADME, human; settings: over the 3 h average residence time, assuming constant permeability
# Description: Aside from limited delivery potential from the microparticle carriers, loss of bioavailability resulting from intestinal enzymatic degradation and low intestinal absorption should also be accounted for.
# [3] = in vivo absorption of compounds with similar Caco-2 permeability; cited from earlier work
# [4] = Loading and release of salmon calcitonin, urokinase and Rituxan from 1:2 P(IA-co-NVP) microparticles; assay type: physicochemical; settings: 3 mol % TEGDMA; for Loading Level: protein loading solution 200 μg/mL; for Percent Release, t = 24 h / Protein Released, t = 24 h: t=0-1 h pH 3, then pH 7.4
# Description: In an additional experiment, the loading and release of urokinase was also compared to that of sCT and rituximab using P(IA-co-NVP) microparticles synthesized with a monomer ratio of 1:2 IA to NVP. This experiment utilized urokinase as another high pI protein (pI=8.66) with a molecular weight (54.0 kDa) between that of salmon calcitonin (3.4 kDa) and rituximab (144 kDa), allowing us to see the effects across a range of sizes, rather than just two endpoints. Urokinase is used clinically as a thrombolytic agent for myocardial infarction, pulmonary embolism, and deep vein thrombosis.
# This difference arises from two results. First, the hydrogels used in this experiment were crosslinked using 3 mol % TEGDMA in the monomer feed. […] Further, this experiment utilized loading solutions of proteins at only 200 μg/mL, rather than at 400 μg/mL as was used in the preceding experiment. […] With lower loading levels comes both lower overall delivery and lower percent release, as the lower loading level means less protein to be released even at 100% efficiency and, since concentration difference is the driving force for diffusion, less entropic gain due to diffusive release which therefore shifts the equilibrium toward coulombic binding rather than diffusive release.
Molecule,Loading Level [4],"Percent Release, t = 24 h [4]","Protein Released, t = 24 h [4]",also measured
1-deamino-8-D-arginine-vasopressin,–,–,–,Apparent permeability in Caco-2 cultures (Caco-2 monolayer [1]; Caco-2): 1.3×10^−7
CC(C)C[C@H](NC(=O)[C@H](CCCCN)NC(=O)CNC(=O)[C@H](CC(C)C)NC(=O)[C@@H](NC(=O)[C@@H]1CSSC[C@H](N)C(=O)N[C@@H](CO)C(=O)N[C@@H](CC(N)=O)C(=O)N[C@@H](CC(C)C)C(=O)N[C@@H](CO)C(=O)N[C@@H]([C@@H](C)O)C(=O)N1)C(C)C)C(=O)N[C@@H](CO)C(=O)N[C@@H](CCC(N)=O)C(=O)N[C@@H](CCC(=O)O)C(=O)N[C@@H](CC(C)C)C(=O)N[C@@H](Cc1c[nH]cn1)C(=O)N[C@@H](CCCCN)C(=O)N[C@@H](CC(C)C)C(=O)N[C@@H](CCC(N)=O)C(=O)N[C@H](C(=O)N[C@@H](Cc1ccc(O)cc1)C(=O)N1CCC[C@H]1C(=O)N[C@@H](CCCNC(=N)N)C(=O)N[C@H](C(=O)N[C@@H](CC(N)=O)C(=O)N[C@H](C(=O)NCC(=O)N[C@@H](CO)C(=O)NCC(=O)N[C@H](C(=O)N1CCC[C@H]1C(N)=O)[C@@H](C)O)[C@@H](C)O)[C@@H](C)O)[C@@H](C)O [Salmon Calcitonin],–,–,–,"Fraction expected to be transported across the intestinal epithelium (Caco-2 monolayer [2]): 0.15%; Fraction transported across a Caco-2 monolayer (Caco-2 monolayer [1]; in vitro, over 60 min, Youn et al. (2006)): 0.05%"
COc1cccc2c1C(=O)c1c(O)c3c(c(O)c1C2=O)C[C@@](O)(C(=O)CO)C[C@@H]3O[C@H]1C[C@H](N)[C@H](O)[C@H](C)O1 [doxorubicin],–,–,–,Absorption [3]: 5%
Rituxan: large monoclonal antibody rituximab (144 kDa),24.1 ± 1.5 μg/mg hydrogel,20.0 ± 3.6%,4.8 ± 1.1 μg/mg hydrogel,Loading Level ([4]; listed as rituximab): 24.1 μg/mg hydrogel
Urokinase,19.0 ± 1.1 μg/mg hydrogel,14.2 ± 3.2%,2.7 ± 0.5 μg/mg hydrogel,Loading Level ([4]; listed as urokinase): 19.0 μg/mg hydrogel
